This test addresses recombinant Ebola virus (EBOV) glycoprotein (Zaire ebolavirus (EBOV)) (UniProt Q05320). The test can be described thus: SEC.

Regarding “recombinant Ebola virus (EBOV) glycoprotein (from UniProt Q05320) (natural protein)”, the stoichiometry N was 3.
